Measurements published in patent US20160200782A1.

Columns and labels:
Test in all cases: cell-based or functional assay
CK1δ(h) (human), P48730 = molecular target: CK1δ(h) (human), P48730
[1] = molecular target: CaMKIIδ(h) (human), Q13557
[2] = molecular target: CaMKIδ(h) (human), Q8IU85
[3] = molecular target: JNK2α2(h) (human), P45984
MKK7β(h) (human), O14733 = molecular target: MKK7β(h) (human), O14733
PKCβI(h) (human), P05771 = molecular target: PKCβI(h) (human), P05771
PKG1α(h) (human), Q13976 = molecular target: PKG1α(h) (human), Q13976
PKG1α(h) (human), Q13976, sequence (Q13976 whole entry): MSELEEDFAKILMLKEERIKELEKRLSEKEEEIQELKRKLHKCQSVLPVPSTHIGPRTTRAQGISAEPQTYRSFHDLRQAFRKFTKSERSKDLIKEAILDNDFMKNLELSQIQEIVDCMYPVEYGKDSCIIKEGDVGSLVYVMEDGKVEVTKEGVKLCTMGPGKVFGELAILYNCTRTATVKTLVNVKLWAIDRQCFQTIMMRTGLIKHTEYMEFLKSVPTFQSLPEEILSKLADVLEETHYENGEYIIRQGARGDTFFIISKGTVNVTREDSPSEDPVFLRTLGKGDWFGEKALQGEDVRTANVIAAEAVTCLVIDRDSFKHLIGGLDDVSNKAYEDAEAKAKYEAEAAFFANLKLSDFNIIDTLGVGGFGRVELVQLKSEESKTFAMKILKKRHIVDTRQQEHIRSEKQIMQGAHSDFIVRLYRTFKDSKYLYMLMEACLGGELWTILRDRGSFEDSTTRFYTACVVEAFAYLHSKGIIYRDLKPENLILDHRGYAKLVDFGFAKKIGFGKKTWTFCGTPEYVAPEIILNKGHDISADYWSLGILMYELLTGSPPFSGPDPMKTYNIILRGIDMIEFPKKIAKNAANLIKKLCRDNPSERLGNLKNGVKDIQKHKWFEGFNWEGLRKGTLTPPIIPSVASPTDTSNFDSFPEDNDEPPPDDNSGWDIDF

MKK7β(h) (human), O14733, sequence (O14733 whole entry): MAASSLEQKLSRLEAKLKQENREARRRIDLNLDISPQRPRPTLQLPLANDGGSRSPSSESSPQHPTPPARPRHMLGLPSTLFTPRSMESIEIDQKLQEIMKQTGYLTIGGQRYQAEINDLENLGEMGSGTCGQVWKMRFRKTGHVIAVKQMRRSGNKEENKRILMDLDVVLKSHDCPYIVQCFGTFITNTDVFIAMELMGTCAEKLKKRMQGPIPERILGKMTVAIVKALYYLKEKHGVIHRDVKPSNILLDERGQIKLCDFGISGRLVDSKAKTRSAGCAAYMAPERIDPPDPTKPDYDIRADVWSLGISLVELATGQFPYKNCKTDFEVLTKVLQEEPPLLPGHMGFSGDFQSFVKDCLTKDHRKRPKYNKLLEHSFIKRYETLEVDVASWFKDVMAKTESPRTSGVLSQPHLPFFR
PKCβI(h) (human), P05771, sequence (P05771 whole entry): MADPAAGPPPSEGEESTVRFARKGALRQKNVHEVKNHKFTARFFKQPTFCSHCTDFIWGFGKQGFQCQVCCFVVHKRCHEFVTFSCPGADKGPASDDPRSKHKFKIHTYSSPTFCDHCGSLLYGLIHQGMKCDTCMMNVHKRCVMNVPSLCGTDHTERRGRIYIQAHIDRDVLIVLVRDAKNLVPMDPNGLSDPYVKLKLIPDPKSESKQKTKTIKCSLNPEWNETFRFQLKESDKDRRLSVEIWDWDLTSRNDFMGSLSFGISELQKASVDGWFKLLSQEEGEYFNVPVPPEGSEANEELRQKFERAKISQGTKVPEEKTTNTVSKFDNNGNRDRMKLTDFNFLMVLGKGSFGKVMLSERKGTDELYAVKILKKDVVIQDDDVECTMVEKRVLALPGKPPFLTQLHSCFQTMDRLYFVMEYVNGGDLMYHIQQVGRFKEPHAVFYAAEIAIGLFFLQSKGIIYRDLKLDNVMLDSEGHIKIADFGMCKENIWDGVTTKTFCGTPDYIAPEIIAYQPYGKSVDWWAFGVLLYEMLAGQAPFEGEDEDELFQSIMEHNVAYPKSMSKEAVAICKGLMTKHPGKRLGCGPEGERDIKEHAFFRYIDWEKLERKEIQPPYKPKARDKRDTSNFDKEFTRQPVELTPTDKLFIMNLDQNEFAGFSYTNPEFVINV
CK1δ(h) (human), P48730, sequence (P48730 1-294, stated change not applied): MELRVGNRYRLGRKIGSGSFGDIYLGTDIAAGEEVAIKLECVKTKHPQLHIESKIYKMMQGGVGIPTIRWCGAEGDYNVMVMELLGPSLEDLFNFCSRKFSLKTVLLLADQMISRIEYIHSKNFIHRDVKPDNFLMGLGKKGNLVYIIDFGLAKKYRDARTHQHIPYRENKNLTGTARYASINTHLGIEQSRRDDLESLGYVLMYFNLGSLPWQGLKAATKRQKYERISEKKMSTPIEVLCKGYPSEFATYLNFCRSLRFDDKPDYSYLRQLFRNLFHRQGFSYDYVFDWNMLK
CaMKIIδ(h) (human), Q13557, sequence (Q13557 whole entry, stated change not applied): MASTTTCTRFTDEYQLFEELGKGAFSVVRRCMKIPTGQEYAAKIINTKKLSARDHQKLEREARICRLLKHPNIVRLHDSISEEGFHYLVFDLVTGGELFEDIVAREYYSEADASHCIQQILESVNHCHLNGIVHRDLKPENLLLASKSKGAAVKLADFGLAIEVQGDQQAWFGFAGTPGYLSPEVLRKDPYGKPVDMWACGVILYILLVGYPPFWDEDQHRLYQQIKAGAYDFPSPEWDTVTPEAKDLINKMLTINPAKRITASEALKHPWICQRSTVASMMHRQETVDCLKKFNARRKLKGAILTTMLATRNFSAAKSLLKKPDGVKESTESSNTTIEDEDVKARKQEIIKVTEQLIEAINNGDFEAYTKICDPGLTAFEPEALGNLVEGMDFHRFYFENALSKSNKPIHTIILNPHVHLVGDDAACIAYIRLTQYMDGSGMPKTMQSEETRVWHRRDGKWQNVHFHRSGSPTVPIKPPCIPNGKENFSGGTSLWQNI
CaMKIδ(h) (human), Q8IU85, sequence (Q8IU85 whole entry, stated change not applied): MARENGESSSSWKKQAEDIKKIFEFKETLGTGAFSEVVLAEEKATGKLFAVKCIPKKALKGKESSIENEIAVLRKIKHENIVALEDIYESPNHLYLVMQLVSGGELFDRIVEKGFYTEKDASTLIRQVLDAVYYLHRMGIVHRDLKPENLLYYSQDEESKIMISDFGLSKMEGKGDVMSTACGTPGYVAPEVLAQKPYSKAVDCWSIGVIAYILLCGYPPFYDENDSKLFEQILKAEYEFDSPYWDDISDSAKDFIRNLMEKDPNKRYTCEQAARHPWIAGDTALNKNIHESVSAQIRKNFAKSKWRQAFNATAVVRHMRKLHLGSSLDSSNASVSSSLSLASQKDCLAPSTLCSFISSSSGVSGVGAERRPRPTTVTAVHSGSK

For FAKLAARLYRKALARQLGVAA [MMI-0300], the % activity (CK1δ(h) (human), P48730) was 92%, the % activity [1] was 1% and the % activity [2] was 10%. The % activity [3] was 98%, the % activity (MKK7β(h) (human), O14733) was 100% and the % activity (PKCβI(h) (human), P05771) was 78%. The % activity (PKG1α(h) (human), Q13976) was 64%.

Binder KAFAKLAARLYRKALARQLGVAA [MMI-0400] has a % activity (CK1δ(h) (human), P48730) of 93%, a % activity [1] of 2% and a % activity [2] of 17%. The % activity [3] was 96%, the % activity (MKK7β(h) (human), O14733) was 94% and the % activity (PKCβI(h) (human), P05771) was 78%. It also gave a % activity (PKG1α(h) (human), Q13976) of 58%.
